Measurements taken from publication PMC2715106 (PLoS ONE, 2009).

What was measured:
Settings in all cases: both partners purified
[1] = target: T1, terbium-labeled core RNA polymerase (E. coli, UniProt P0A7Z4 1-329; P0A8V2 1-1342; P0A8T7 1-1407; P0A800 1-91, CS124-DTPA-Phe-NCS-Tb-chelate on randomly labeled lysine residues of core RNAP, 1:1 ratio of Tb-chelate to molecule of core; which subunit is not told | CS124-DTPA-Phe-NCS-Tb-chelate on randomly …); assay: FRET or BRET; LRET saturation binding, homogeneous; fluorescein-sigma serially diluted, 10 nM Tb-core; TG (50 mM Tris-HCl pH 7.9, 5% glycerol) + 500 mM NaCl; 1 h at 22°C; [core]0 set at 5 nM in the fit
T1 construct: E. coli RNA polymerase α subunit; E. coli RNA polymerase β subunit; E. coli RNA polymerase β' subunit; E. coli RNA polymerase ω subunit; also called Tb-core; Tb-core RNAP; copies: 2 + 1 + 1 + 1

[2] = target: T1, terbium-labeled core RNA polymerase; assay: FRET or BRET; LRET saturation binding, homogeneous; fluorescein-sigma serially diluted, 10 nM Tb-core; TG (50 mM Tris-HCl pH 7.9, 5% glycerol) + 500 mM KGlu; 1 h at 22°C; [core]0 set at 5 nM in the fit
[3] = target: T1, terbium-labeled core RNA polymerase; assay: FRET or BRET; LRET saturation binding, homogeneous; fluorescein-sigma serially diluted, 10 nM Tb-core; TG (50 mM Tris-HCl pH 7.9, 5% glycerol) + 250 mM KGlu; 1 h at 22°C; [core]0 set at 5 nM in the fit
[4] = target: T1, terbium-labeled core RNA polymerase; assay: FRET or BRET; LRET saturation binding, homogeneous; fluorescein-sigma serially diluted, 10 nM Tb-core; TG (50 mM Tris-HCl pH 7.9, 5% glycerol) + 100 mM NaCl; 1 h at 22°C; [core]0 set at 5 nM in the fit
[5] = target: T1, terbium-labeled core RNA polymerase; assay: FRET or BRET; LRET saturation binding, homogeneous; fluorescein-sigma serially diluted, 10 nM Tb-core; TG (50 mM Tris-HCl pH 7.9, 5% glycerol) + 250 mM NaCl; 1 h at 22°C; [core]0 set at 5 nM in the fit
[6] = target: T1, terbium-labeled core RNA polymerase; assay: FRET or BRET; LRET saturation binding, homogeneous; fluorescein-sigma serially diluted, 10 nM Tb-core; TG (50 mM Tris-HCl pH 7.9, 5% glycerol) + 100 mM KGlu; 1 h at 22°C; [core]0 set at 5 nM in the fit

T1 sequence (P0A7Z4 whole entry, chain 1 of 4): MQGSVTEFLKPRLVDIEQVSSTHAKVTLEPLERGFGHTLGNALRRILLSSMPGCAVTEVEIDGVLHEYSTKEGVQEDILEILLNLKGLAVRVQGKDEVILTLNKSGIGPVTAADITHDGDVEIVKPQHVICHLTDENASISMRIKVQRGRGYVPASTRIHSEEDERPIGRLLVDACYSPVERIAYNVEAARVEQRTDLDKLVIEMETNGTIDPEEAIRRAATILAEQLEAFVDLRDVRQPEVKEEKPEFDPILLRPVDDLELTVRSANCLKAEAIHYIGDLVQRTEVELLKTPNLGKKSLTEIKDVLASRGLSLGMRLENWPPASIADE
T1 sequence (P0A8V2 whole entry, chain 2 of 4): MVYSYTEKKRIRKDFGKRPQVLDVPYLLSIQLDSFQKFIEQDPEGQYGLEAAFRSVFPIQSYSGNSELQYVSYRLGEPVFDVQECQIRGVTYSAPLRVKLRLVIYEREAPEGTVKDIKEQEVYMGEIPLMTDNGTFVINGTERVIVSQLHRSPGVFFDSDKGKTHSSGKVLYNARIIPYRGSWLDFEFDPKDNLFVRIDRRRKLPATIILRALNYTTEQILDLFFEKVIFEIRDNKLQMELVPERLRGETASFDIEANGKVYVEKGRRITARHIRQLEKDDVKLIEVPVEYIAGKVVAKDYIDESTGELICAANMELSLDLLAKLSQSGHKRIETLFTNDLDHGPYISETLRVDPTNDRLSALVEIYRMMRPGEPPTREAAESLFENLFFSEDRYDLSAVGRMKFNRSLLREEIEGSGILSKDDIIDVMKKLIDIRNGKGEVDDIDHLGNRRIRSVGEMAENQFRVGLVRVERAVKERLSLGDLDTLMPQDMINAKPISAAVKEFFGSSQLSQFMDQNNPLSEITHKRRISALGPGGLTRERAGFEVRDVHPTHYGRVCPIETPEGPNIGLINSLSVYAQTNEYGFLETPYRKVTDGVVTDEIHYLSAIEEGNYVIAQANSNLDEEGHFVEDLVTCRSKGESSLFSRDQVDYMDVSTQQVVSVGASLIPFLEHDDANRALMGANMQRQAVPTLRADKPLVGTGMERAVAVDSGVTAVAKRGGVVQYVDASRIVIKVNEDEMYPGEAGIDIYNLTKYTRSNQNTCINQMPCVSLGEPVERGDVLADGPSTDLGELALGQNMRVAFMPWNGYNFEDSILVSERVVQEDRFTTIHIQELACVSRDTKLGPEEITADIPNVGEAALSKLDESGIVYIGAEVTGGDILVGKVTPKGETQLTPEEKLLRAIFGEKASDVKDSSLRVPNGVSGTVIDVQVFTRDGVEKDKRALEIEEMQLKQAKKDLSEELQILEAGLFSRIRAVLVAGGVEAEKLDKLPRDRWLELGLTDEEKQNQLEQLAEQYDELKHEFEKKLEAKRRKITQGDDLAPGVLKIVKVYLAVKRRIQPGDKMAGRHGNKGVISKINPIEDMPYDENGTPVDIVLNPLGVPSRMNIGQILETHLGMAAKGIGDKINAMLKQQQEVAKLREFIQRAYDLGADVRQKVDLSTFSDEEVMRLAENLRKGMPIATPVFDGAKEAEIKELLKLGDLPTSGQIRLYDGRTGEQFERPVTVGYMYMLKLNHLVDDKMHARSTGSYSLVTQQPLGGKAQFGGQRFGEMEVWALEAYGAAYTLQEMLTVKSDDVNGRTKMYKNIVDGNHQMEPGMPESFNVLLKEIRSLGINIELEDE
T1 sequence (P0A8T7 whole entry, chain 3 of 4): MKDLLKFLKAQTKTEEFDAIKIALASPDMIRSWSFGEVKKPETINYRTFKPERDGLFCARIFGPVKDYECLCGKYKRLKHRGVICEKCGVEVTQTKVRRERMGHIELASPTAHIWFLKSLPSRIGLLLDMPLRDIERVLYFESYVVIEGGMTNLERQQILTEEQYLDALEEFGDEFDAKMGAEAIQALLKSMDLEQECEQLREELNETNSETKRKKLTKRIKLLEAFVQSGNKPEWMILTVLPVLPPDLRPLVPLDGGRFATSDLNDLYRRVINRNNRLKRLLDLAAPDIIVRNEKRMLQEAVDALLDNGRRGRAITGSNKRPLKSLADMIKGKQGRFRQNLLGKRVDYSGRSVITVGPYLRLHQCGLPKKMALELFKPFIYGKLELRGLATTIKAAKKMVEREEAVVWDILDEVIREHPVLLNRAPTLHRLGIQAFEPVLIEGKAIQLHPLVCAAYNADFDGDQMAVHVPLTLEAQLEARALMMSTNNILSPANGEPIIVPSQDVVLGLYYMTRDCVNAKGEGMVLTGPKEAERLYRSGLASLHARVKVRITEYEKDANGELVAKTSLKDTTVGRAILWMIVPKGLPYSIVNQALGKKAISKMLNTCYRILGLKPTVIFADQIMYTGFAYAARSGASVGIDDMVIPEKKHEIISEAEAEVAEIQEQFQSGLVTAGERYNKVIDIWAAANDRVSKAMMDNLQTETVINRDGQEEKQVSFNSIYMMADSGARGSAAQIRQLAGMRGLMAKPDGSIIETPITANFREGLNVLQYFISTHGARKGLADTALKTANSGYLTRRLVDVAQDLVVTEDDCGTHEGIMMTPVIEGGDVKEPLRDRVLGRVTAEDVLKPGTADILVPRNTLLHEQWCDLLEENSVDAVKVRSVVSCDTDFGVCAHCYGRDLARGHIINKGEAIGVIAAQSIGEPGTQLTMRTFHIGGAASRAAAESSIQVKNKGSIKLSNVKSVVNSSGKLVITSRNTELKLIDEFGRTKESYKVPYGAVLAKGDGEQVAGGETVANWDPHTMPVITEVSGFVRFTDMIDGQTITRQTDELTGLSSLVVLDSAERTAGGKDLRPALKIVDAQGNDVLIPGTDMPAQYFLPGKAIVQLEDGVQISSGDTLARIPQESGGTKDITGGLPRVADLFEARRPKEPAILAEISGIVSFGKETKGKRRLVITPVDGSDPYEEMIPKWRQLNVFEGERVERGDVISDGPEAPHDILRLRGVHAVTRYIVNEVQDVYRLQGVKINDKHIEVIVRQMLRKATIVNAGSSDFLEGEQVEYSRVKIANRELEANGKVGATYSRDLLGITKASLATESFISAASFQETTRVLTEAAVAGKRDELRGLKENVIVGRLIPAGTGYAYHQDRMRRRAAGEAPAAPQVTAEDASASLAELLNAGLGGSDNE
T1 sequence (P0A800 whole entry, chain 4 of 4): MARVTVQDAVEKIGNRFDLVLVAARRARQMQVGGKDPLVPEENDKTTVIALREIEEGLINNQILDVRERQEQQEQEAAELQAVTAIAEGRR

B1: fluorescein-σ32 (natural protein, E. coli, UniProt P0AGB3 1-284, looked up)
chain: MTDKMQSLALAPVGNLDSYIRAANAWPMLSADEERALAEKLHYHGDLEAAKTLILSHLRFVVHIARNYAGYGLPQADLIQEGNIGLMKAVRRFNPEVGVRLVSFAVHWIKAEIHEYVLRNWRIVKVATTKAQRKLFFNLRKTKQRLGWFNQDEVEMVARELGVTSKDVREMESRMAAQDMTFDLSSDDDSDSQPMAPVLYLQDKSSNFADGIEDDNWEEQAANRLTDAMQGLDERSQDIIRARWLDEDNKSTLQELADRYGVSAERVRQLEKNAMKKLRAAIEA
modifications: fluorescein on randomly labeled lysine residues, 2:1 ratio of fluorescein to molecule of protein
notes: E. coli heat shock sigma factor σ32 (RpoH); also called F-σ32; RpoH
Work on B1 yielded a Kd [1] of 2.4 nM, a Kd [2] of 2 nM and a Kd [3] of 1.3 nM. The Kd [4] was 0.8 nM, the Kd [5] was 0.6 nM and the Kd [6] was 0.3 nM.
